# Laboratory results: the supplement of paper PMC9112550, “Optimization of the antimicrobial peptide Bac7 by deep mutational scanning” (BMC Biology, 2022)
# Test system: Escherichia coli TOP10
# Test: shrunken log2 fold change of peptide-encoding DNA abundance (4.5 h post-induction vs induction); higher = less antimicrobial activity (less host growth inhibition)
# Details: time post-induction: 4.5 h; library: site-saturation at positions 5, 18, 19, 20
# 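Note: peptides expressed intracellularly from a pBAD plasmid library in pooled LB shake-flask culture, induced with 0.3% L-arabinose, DNA abundance read by NGS, three biological replicates, DESeq2 with apeglm shrinkage.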
row,Sequence,shrunken log2 fold change
1,RRIRNRPPRLPRPRPRPMHRPRP,-0.0926
2,RRIRARPPRLPRPRPRPKCKPRP,0.278
3,RRIRTRPPRLPRPRPRPENHPRP,-0.119
4,RRIRIRPPRLPRPRPRPACSPRP,-0.129
5,RRIRGRPPRLPRPRPRPDGFPRP,0.171
6,RRIRSRPPRLPRPRPRPHQDPRP,-0.117
7,RRIRPRPPRLPRPRPRPCQMPRP,0.0359
8,RRIRDRPPRLPRPRPRPLCCPRP,0.0616
9,RRIRQRPPRLPRPRPRPDFDPRP,-0.0668
10,RRIRHRPPRLPRPRPRPELWPRP,0.376
11,RRIRERPPRLPRPRPRPMCFPRP,-0.176
12,RRIRSRPPRLPRPRPRPYPMPRP,-0.035
13,RRIRQRPPRLPRPRPRPCRHPRP,-0.000946
14,RRIRLRPPRLPRPRPRPYTSPRP,-0.33
15,RRIRTRPPRLPRPRPRPTPTPRP,0.289
16,RRIRQRPPRLPRPRPRPAWFPRP,0.162
17,RRIRARPPRLPRPRPRPITIPRP,0.222
18,RRIRDRPPRLPRPRPRPYHFPRP,-0.277
19,RRIRRRPPRLPRPRPRPRWDPRP,0.457
20,RRIRRRPPRLPRPRPRPNQEPRP,-0.0479
21,RRIRTRPPRLPRPRPRPYVQPRP,-0.0752
22,RRIRHRPPRLPRPRPRPAAPPRP,0.093

row,Sequence,shrunken log2 fold change
1,RRIRKRPPRLPRPRPRPTRCPRP,0.876
2,RRIRMRPPRLPRPRPRPMPKPRP,0.0834
3,RRIRARPPRLPRPRPRPMRYPRP,-0.179
4,RRIRLRPPRLPRPRPRPWCYPRP,-0.489
5,RRIRGRPPRLPRPRPRPDTMPRP,0.00209
6,RRIRARPPRLPRPRPRPADMPRP,0.194
7,RRIRCRPPRLPRPRPRPWHDPRP,-0.142
8,RRIRLRPPRLPRPRPRPDQGPRP,-0.034
9,RRIRVRPPRLPRPRPRPMRNPRP,-0.0233
10,RRIRTRPPRLPRPRPRPWPQPRP,0.323
11,RRIRIRPPRLPRPRPRPIQMPRP,-0.203
12,RRIRLRPPRLPRPRPRPQPKPRP,0.172
13,RRIRSRPPRLPRPRPRPFLMPRP,3.07
14,RRIRWRPPRLPRPRPRPLQRPRP,0.189
15,RRIRLRPPRLPRPRPRPGFYPRP,-0.102
16,RRIRFRPPRLPRPRPRPQNRPRP,-0.536
17,RRIRQRPPRLPRPRPRPWKNPRP,0.033
18,RRIRNRPPRLPRPRPRPHRRPRP,0.143
19,RRIRERPPRLPRPRPRPPFFPRP,0.0761
20,RRIRWRPPRLPRPRPRPVAEPRP,1.41
21,RRIRQRPPRLPRPRPRPREIPRP,0.115
22,RRIRDRPPRLPRPRPRPASMPRP,0.483

row,Sequence,shrunken log2 fold change
1,RRIRRRPPRLPRPRPRPVVCPRP,0.0897
2,RRIRSRPPRLPRPRPRPQIWPRP,-0.167
3,RRIRHRPPRLPRPRPRPSSSPRP,-0.258
4,RRIRKRPPRLPRPRPRPKMMPRP,0.421
5,RRIRFRPPRLPRPRPRPKLQPRP,-0.0358
6,RRIRVRPPRLPRPRPRPSDGPRP,0.000198
7,RRIRMRPPRLPRPRPRPVEDPRP,0.358
8,RRIRARPPRLPRPRPRPCFMPRP,-0.0304
9,RRIRHRPPRLPRPRPRPAVYPRP,-0.0534
10,RRIRARPPRLPRPRPRPDFWPRP,0.289
11,RRIRMRPPRLPRPRPRPAGPPRP,0.484
12,RRIRFRPPRLPRPRPRPTSSPRP,-0.0359
13,RRIRDRPPRLPRPRPRPWPGPRP,0.104
14,RRIRNRPPRLPRPRPRPADTPRP,0.124
15,RRIRRRPPRLPRPRPRPRQQPRP,-0.0361
16,RRIRARPPRLPRPRPRPQPAPRP,0.679
17,RRIRRRPPRLPRPRPRPMGHPRP,0.129
18,RRIRIRPPRLPRPRPRPNDEPRP,-0.781
19,RRIRPRPPRLPRPRPRPPLNPRP,0.275
20,RRIRNRPPRLPRPRPRPEIGPRP,0.195
21,RRIRRRPPRLPRPRPRPVWVPRP,0.566
22,RRIRYRPPRLPRPRPRPLSAPRP,-0.542

row,Sequence,shrunken log2 fold change
1,RRIRTRPPRLPRPRPRPKSGPRP,0.0903
2,RRIRHRPPRLPRPRPRPHQAPRP,-0.0163
3,RRIRARPPRLPRPRPRPQEWPRP,0.00318
4,RRIRDRPPRLPRPRPRPWWMPRP,0.0169
5,RRIRTRPPRLPRPRPRPDVPPRP,-0.0167
6,RRIRGRPPRLPRPRPRPWPFPRP,0.745
7,RRIRRRPPRLPRPRPRPYAEPRP,0.132
8,RRIRGRPPRLPRPRPRPLRGPRP,1.29
9,RRIRCRPPRLPRPRPRPYPLPRP,-0.191
10,RRIRDRPPRLPRPRPRPMWCPRP,0.00673
11,RRIRMRPPRLPRPRPRPKVYPRP,0.0391
12,RRIRLRPPRLPRPRPRPQEVPRP,0.0641
13,RRIRYRPPRLPRPRPRPGFFPRP,-0.205
14,RRIRGRPPRLPRPRPRPKGHPRP,0.67
15,RRIRTRPPRLPRPRPRPMPLPRP,-0.104
16,RRIRSRPPRLPRPRPRPMIMPRP,-0.0825
17,RRIRMRPPRLPRPRPRPVTQPRP,0.317
18,RRIRIRPPRLPRPRPRPEHVPRP,-0.0143
19,RRIRRRPPRLPRPRPRPLPEPRP,0.731
20,RRIRKRPPRLPRPRPRPLGWPRP,1.11
21,RRIRDRPPRLPRPRPRPIPLPRP,-0.0193
22,RRIRARPPRLPRPRPRPAVTPRP,0.214

row,Sequence,shrunken log2 fold change
1,RRIRMRPPRLPRPRPRPIHRPRP,-0.154
2,RRIRIRPPRLPRPRPRPLNIPRP,-0.925
3,RRIRPRPPRLPRPRPRPFEQPRP,-0.281
4,RRIRRRPPRLPRPRPRPDCEPRP,0.363
5,RRIRLRPPRLPRPRPRPFTEPRP,-0.163
6,RRIRWRPPRLPRPRPRPHMWPRP,-0.138
7,RRIRPRPPRLPRPRPRPEGTPRP,0.0836
8,RRIRLRPPRLPRPRPRPKIWPRP,-0.0443
9,RRIRSRPPRLPRPRPRPTMYPRP,-0.247
10,RRIRQRPPRLPRPRPRPNPYPRP,-0.0811
11,RRIRARPPRLPRPRPRPCSNPRP,-0.153
12,RRIRARPPRLPRPRPRPFLVPRP,-0.205
13,RRIRIRPPRLPRPRPRPWRAPRP,0.0578
14,RRIRRRPPRLPRPRPRPHEHPRP,-0.153
15,RRIRPRPPRLPRPRPRPNDTPRP,-0.338
16,RRIRCRPPRLPRPRPRPRNFPRP,-0.0465
17,RRIRDRPPRLPRPRPRPGERPRP,0.276
18,RRIRSRPPRLPRPRPRPVWMPRP,0.396
19,RRIRQRPPRLPRPRPRPTEDPRP,0.0148
20,RRIRSRPPRLPRPRPRPYEDPRP,-0.129
21,RRIRHRPPRLPRPRPRPVNGPRP,-0.0224
